In paper PMC8690919 (Theranostics, 2022):

Each binder was assayed against T1, SARS-CoV-2 receptor-binding domain (RBD), His-tagged (SARS-CoV-2, UniProt P0DTC2) (assay: crystal structure). Conditions: both partners purified.
T1 construct: also called viral RBD; His-tagged RBD

| Binder | binding result |
| --- | --- |
| FI-3A Fab (Fab, V domains shown) VH: EVQLLESGGGLIQPGGSLRLSCAASGFTVSSNYMSWVRQAPGKGLEWVSVIYSGGSTYYADSVKGRFTISRDNSKNTLYLQMNSLRAEDTAVYYCARDHVRPGMNIWGQGTMVTVSS VL: not shown | binds |
| FD-5D Fab (Fab, V domains shown) VH: EVQLVESGGGLVQPGGSLRLSCAASGFTFSSYSMNWVRQAPGKGLEWVSYISSSSSTIYYADSVKGRFTISRDNAKNSLYLQMNSLRAEDTAVYYCASPGGITAAGTSVLFGYYGMDVWGQGTTVTVSS VL: not shown | binds |
| FD-11A Fab (Fab, V domains shown) VH: EVQLVESGGGVVQPGRSLRLSCAASGFTFSSYGMHWVRQAPGKGLEWVAVIWYDGSNKYYADSVKGRFTISRDNSKNTLYLQMNSLRAEDTAVYYCAKGPDILTGYYNYYYYGMDVWGQGTMVTVSS VL: QSVLTQPPSVSGAPGQRVTISCTGSSSNIGAGYDVHWYQQLPGTAPKLLIYGNSNRPSGVPDRFSGSKSGTSASLAITGLQAEDEADYYCQSYDSSLSGFYVVFGGGTKLTVL | binds |
